Data reported in the supplement of paper PMC7877785.
± gives the uncertainty stated by the source.

Assay: self-splicing fitness, log relative to wild type (ln ratio); higher = more splicing; Tetrahymena group I intron in knt gene, E. coli kanamycin selection, DiMSum; sequences stand for … in CUCUCU…GGAGGGAAAAGUUAUCAGGCAUGCACCUGGUAGCUAGUCUUUAAACCAAUAGAUUGCAUCGGUUUAAAAGGCAAGACCGUCAAAUUGCGGGAAAGGGGUCAACAGCCGUUCAGUACCAAGUCUCAGGGGAAACUUUGAGAUGGCCUUGCAAAGGGUAUGGUAAUAAGCUGACGGACAUGGUCCUAACCACGCAGCCAAGUCCUAAGUCAACAGAUCUUCUGUUGAUAUGGAUGCAGUUCACAGACUAAAUGUCGGUCGGGGAAGAUGUAUUCUUCUCAUAAGAUAUAGUCGGACCUCUCCUUAAUGGGAGCUAGCGGAUGAAGUGAUGCAACACUGGAGCCGCUGGGAACUAAUUUGUAUGCGAAAGUAUAUUGAUUAGUUUUGGAGUACUCGUGGUCG
How it was run: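 DiMSum derived fitness as the error-weighted combination of fold changes across replicates, kanamycin versus no kanamycin, normalised to wild type. E. coli BL21(DE3) held the library, which randomised all eight P1ex-region intron nucleotides within the knt kanamycin-resistance gene on pET-22b(+). Six replicate transformations grew overnight at 37°C or 30°C on LB agar with or without 25 μg/mL kanamycin, also containing 100 μg/mL carbenicillin, 50 μM IPTG and 0.2% rhamnose, and pooled colonies were amplicon-sequenced on an Illumina HiSeq 2500.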

## UCGUAGCAAUAUUACGCGCG
30 °C
  self-splicing fitness (ln): -1.62 ± 0.12
37 °C
  self-splicing fitness (ln): -1.34 ± 0.15

## UCUGAGCAAUAUUACGGUUU
30 °C
  self-splicing fitness (ln): -3.14 ± 0.23
37 °C
  self-splicing fitness (ln): -1.4 ± 0.24

## AUCAAGCAAUAUUACGGACG
30 °C
  self-splicing fitness (ln): -0.832 ± 0.083
37 °C
  self-splicing fitness (ln): 0.117 ± 0.11

## GUUUAGCAAUAUUACGACAG
30 °C
  self-splicing fitness (ln): -3.68 ± 0.32
37 °C
  self-splicing fitness (ln): -2.43 ± 0.34

## UCCCAGCAAUAUUACGUUCC
30 °C
  self-splicing fitness (ln): -2.26 ± 0.21
37 °C
  self-splicing fitness (ln): -2.44 ± 0.27

## GAGGAGCAAUAUUACGGGAG
30 °C
  self-splicing fitness (ln): -4.37 ± 0.29
37 °C
  self-splicing fitness (ln): -3.63 ± 0.35

## CACCAGCAAUAUUACGCGAG
30 °C
  self-splicing fitness (ln): -0.893 ± 0.057
37 °C
  self-splicing fitness (ln): -0.594 ± 0.063

## GAGUAGCAAUAUUACGCCUA
30 °C
  self-splicing fitness (ln): -1.21 ± 0.1
37 °C
  self-splicing fitness (ln): -0.374 ± 0.11

## GUGAAGCAAUAUUACGCCCG
30 °C
  self-splicing fitness (ln): -0.347 ± 0.39
37 °C
  self-splicing fitness (ln): -0.026 ± 0.42

## CAUUAGCAAUAUUACGGCAU
30 °C
  self-splicing fitness (ln): -2.99 ± 0.21
37 °C
  self-splicing fitness (ln): -1.66 ± 0.17

## GGGCAGCAAUAUUACGCAGG
30 °C
  self-splicing fitness (ln): -2.6 ± 0.18
37 °C
  self-splicing fitness (ln): -1.03 ± 0.19

## AGGCAGCAAUAUUACGUGCU
30 °C
  self-splicing fitness (ln): -2.46 ± 0.12
37 °C
  self-splicing fitness (ln): -1.5 ± 0.1

## CAUUAGCAAUAUUACGUACU
30 °C
  self-splicing fitness (ln): -3.11 ± 0.18
37 °C
  self-splicing fitness (ln): -1.8 ± 0.15

## AGGUAGCAAUAUUACGUCCA
30 °C
  self-splicing fitness (ln): -0.144 ± 0.015
37 °C
  self-splicing fitness (ln): -0.214 ± 0.035

## UGCCAGCAAUAUUACGCCCA
30 °C
  self-splicing fitness (ln): 0.23 ± 0.099
37 °C
  self-splicing fitness (ln): -0.149 ± 0.13

## CUGUAGCAAUAUUACGUAAC
30 °C
  self-splicing fitness (ln): -3.09 ± 0.46
37 °C
  self-splicing fitness (ln): -2.24 ± 0.5

## CGGUAGCAAUAUUACGUGUU
30 °C
  self-splicing fitness (ln): -4.12 ± 0.28
37 °C
  self-splicing fitness (ln): -3.09 ± 0.27

## CGACAGCAAUAUUACGUCUG
30 °C
  self-splicing fitness (ln): -1.54 ± 0.083
37 °C
  self-splicing fitness (ln): -0.38 ± 0.092

## CUUCAGCAAUAUUACGUCGG
30 °C
  self-splicing fitness (ln): -1.85 ± 0.15
37 °C
  self-splicing fitness (ln): -1.79 ± 0.24

## AGGAAGCAAUAUUACGUAGA
30 °C
  self-splicing fitness (ln): -1.86 ± 0.099
37 °C
  self-splicing fitness (ln): -2.42 ± 0.15

## CCUCAGCAAUAUUACGUGGU
30 °C
  self-splicing fitness (ln): -3.93 ± 0.11
37 °C
  self-splicing fitness (ln): -2.5 ± 0.13

## CUCCAGCAAUAUUACGACUA
30 °C
  self-splicing fitness (ln): -2.47 ± 0.21
37 °C
  self-splicing fitness (ln): -2.53 ± 0.29

## CUAGAGCAAUAUUACGAAGA
30 °C
  self-splicing fitness (ln): -3.61 ± 0.28
37 °C
  self-splicing fitness (ln): -1.94 ± 0.43

## CGCGAGCAAUAUUACGUGGC
30 °C
  self-splicing fitness (ln): -2.53 ± 0.18
37 °C
  self-splicing fitness (ln): -2.16 ± 0.18

## AUCUAGCAAUAUUACGUCAA
30 °C
  self-splicing fitness (ln): -2.6 ± 0.29
37 °C
  self-splicing fitness (ln): -1.68 ± 0.21

## GCCCAGCAAUAUUACGCUCG
30 °C
  self-splicing fitness (ln): -3.45 ± 0.24
37 °C
  self-splicing fitness (ln): -2.34 ± 0.27

## CAGGAGCAAUAUUACGAUGG
30 °C
  self-splicing fitness (ln): -0.317 ± 0.091
37 °C
  self-splicing fitness (ln): 0.171 ± 0.13

## UUUAAGCAAUAUUACGAAAA
30 °C
  self-splicing fitness (ln): -0.789 ± 0.19
37 °C
  self-splicing fitness (ln): -1.33 ± 0.2

## AGUCAGCAAUAUUACGAACA
30 °C
  self-splicing fitness (ln): -0.843 ± 0.076
37 °C
  self-splicing fitness (ln): -0.406 ± 0.11

## CAAAAGCAAUAUUACGCUUC
30 °C
  self-splicing fitness (ln): -3.84 ± 0.33
37 °C
  self-splicing fitness (ln): -1.99 ± 0.24

## GCUCAGCAAUAUUACGGUAC
30 °C
  self-splicing fitness (ln): -0.486 ± 0.13
37 °C
  self-splicing fitness (ln): -0.709 ± 0.15

## UUGUAGCAAUAUUACGUGAA
30 °C
  self-splicing fitness (ln): -1.87 ± 0.14
37 °C
  self-splicing fitness (ln): -0.614 ± 0.14

## AGUAAGCAAUAUUACGUUGC
30 °C
  self-splicing fitness (ln): -4.14 ± 0.21
37 °C
  self-splicing fitness (ln): -2.21 ± 0.17

## CCUAAGCAAUAUUACGUCAU
30 °C
  self-splicing fitness (ln): -4.09 ± 0.22
37 °C
  self-splicing fitness (ln): -2.83 ± 0.22

## GGCCAGCAAUAUUACGGGUA
30 °C
  self-splicing fitness (ln): -0.772 ± 0.064
37 °C
  self-splicing fitness (ln): -0.783 ± 0.071

## GCUAAGCAAUAUUACGUGCG
30 °C
  self-splicing fitness (ln): -1.07 ± 0.086
37 °C
  self-splicing fitness (ln): 0.103 ± 0.1

## CCACAGCAAUAUUACGUCGG
30 °C
  self-splicing fitness (ln): -3.14 ± 0.12
37 °C
  self-splicing fitness (ln): -1.95 ± 0.18

## CGCCAGCAAUAUUACGACGA
30 °C
  self-splicing fitness (ln): -2.77 ± 0.15
37 °C
  self-splicing fitness (ln): -1.48 ± 0.14

## GACCAGCAAUAUUACGGCGU
30 °C
  self-splicing fitness (ln): 0.046 ± 0.071
37 °C
  self-splicing fitness (ln): 0.319 ± 0.087

## CAAUAGCAAUAUUACGUAGC
37 °C
  self-splicing fitness (ln): -2.05 ± 0.3

## AUGCAGCAAUAUUACGCUCU
30 °C
  self-splicing fitness (ln): -1.34 ± 0.084
37 °C
  self-splicing fitness (ln): 0.22 ± 0.084

## CGGAAGCAAUAUUACGAGAU
37 °C
  self-splicing fitness (ln): -2.18 ± 0.33
